# Measured values reported in the supplement of paper PMC10567573.
# B1: TEKT4 (parent)
# chain: YARYHQAFADRDQSERQRHESQQL
# Variants of: B1
# Experiment: protein stability index of a GFP-peptide fusion (GPS, HEK-293T) (PSI 1-6); higher = more stable
# Conditions: c terminus: a fixed tail appended
# 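Also: lentivirally expressed fusions sorted by FACS into six bins by GFP to DsRed ratio, PSI derived from sequencing read proportions per bin multiplied by bin number.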
row,Variant,protein stability index
1,YARYHQAFADRDQSERQRHEFQQL,1.59
2,YARYHQAFADRDQSERQRHEDQQL,1.78
3,YARYHQAFADRDQSERQRHEGQQL,2.32
4,YARYHQAFADRDQSERQRHEAQQL,2.01
5,YARYHQAFADRDQSERQRHECQQL,2.77
6,YARYHQAFADRDQSERQRHEEQQL,2.5
7,YARYHQAFADRDQSERQRKESQQL,2.63
8,YARYHQAFADRDQSERQRPESQQL,2.51
9,YARYHQAFADRDQSERQRCESQQL,2.39
10,YARYHQAFADRDQSERQRYESQQL,1.61
11,YARYHQAFADRDQSERQRAESQQL,2.11
12,YARYHQAFADRDQSERQRTESQQL,1.97
13,YARYHQAFADRDQSERQRSESQQL,2.25
14,YARYHQAFADRDQSERQRVESQQL,2.31
15,YARYHQAFADRDQSERQRDESQQL,2.25
16,YARYHQAFADRDQSERQRNESQQL,2.08
17,YARYHQAFADRDQSERQREESQQL,2.19
18,YARYHQAFADRDQSERQRRESQQL,2.05
19,YARYHQAFADRDQSERQRFESQQL,1.48
20,YARYHQAFADRDQSERQRIESQQL,2.53
21,YARYHQAFADRDQSERQRGESQQL,2.64
22,YARYHQAFADRDQSERQRLESQQL,1.65
23,YARYHQAFADRDQSERQRWESQQL,1.94
24,YARYHQAFADRDQSERQRMESQQL,2.35

row,Variant,protein stability index
1,YARYHQAFADRDQSERQRQESQQL,2.51
2,YARYHQAFADRDQSERQRHSSQQL,2.3
3,YARYHQAFADRDQSERQRHASQQL,2.51
4,YARYHQAFADRDQSERQRHQSQQL,1.53
5,YARYHQAFADRDQSERQRHTSQQL,2.27
6,YARYHQAFADRDQSERQRHISQQL,1.57
7,YARYHQAFADRDQSERQRHKSQQL,2.06
8,YARYHQAFADRDQSERQRHNSQQL,2.18
9,YARYHQAFADRDQSERQRHMSQQL,1.74
10,YARYHQAFADRDQSERQRHRSQQL,2.13
11,YARYHQAFADRDQSERQRHHSQQL,2.22
12,YARYHQAFADRDQSERQRHWSQQL,1.51
13,YARYHQAFADRDQSERQRHVSQQL,2.21
14,YARYHQAFADRDQSERQRHYSQQL,2.06
15,YARYHQAFADRDQSERQRHLSQQL,1.64
16,YARYHQAFADRDQSERQRHCSQQL,2.01
17,YARYHQAFADRDQSERQRHPSQQL,2.23
18,YARYHQAFADRDQSERQRHGSQQL,2.19
19,YARYHQAFADRDQSERQRHFSQQL,1.76
20,YARYHQAFADRDQSERQRHDSQQL,2.36
21,YARYHQAFADRDQTERQRHESQQL,2.37
22,YARYHQAFADRDQHERQRHESQQL,1.99
23,YARYHQAFADRDQLERQRHESQQL,2.72
24,YARYHQAFADRDQYERQRHESQQL,2.07

row,Variant,protein stability index
1,YARYHQAFADRDQFERQRHESQQL,1.48
2,YARYHQAFADRDQWERQRHESQQL,1.71
3,YARYHQAFADRDQIERQRHESQQL,2.16
4,YARYHQAFADRDQGERQRHESQQL,1.8
5,YARYHQAFADRDQKERQRHESQQL,2.22
6,YARYHQAFADRDQVERQRHESQQL,2.31
7,YARYHQAFADRDQRERQRHESQQL,1.63
8,YARYHQAFADRDQCERQRHESQQL,1.46
9,YARYHQAFADRDQNERQRHESQQL,2.21
10,YARYHQAFADRDQEERQRHESQQL,2.59
11,YARYHQAFADRDQDERQRHESQQL,2.76
12,YARYHQAFADRDQAERQRHESQQL,1.88
13,YARYHQAFADRDQPERQRHESQQL,3.2
14,YARYHQAFADRDQMERQRHESQQL,1.79
15,YARYHQAFADRDQQERQRHESQQL,2.13
16,YARYHQAFADRVQSERQRHESQQL,2.06
17,YARYHQAFADRAQSERQRHESQQL,1.43
18,YARYHQAFADRMQSERQRHESQQL,1.7
19,YARYHQAFADRHQSERQRHESQQL,2.15
20,YARYHQAFADRWQSERQRHESQQL,2.99
21,YARYHQAFADRGQSERQRHESQQL,2.08
22,YARYHQAFADRTQSERQRHESQQL,2.12
23,YARYHQAFADRSQSERQRHESQQL,1.67
24,YARYHQAFADRFQSERQRHESQQL,1.85

row,Variant,protein stability index
1,YARYHQAFADRKQSERQRHESQQL,1.67
2,YARYHQAFADRIQSERQRHESQQL,2.58
3,YARYHQAFADRRQSERQRHESQQL,1.44
4,YARYHQAFADRPQSERQRHESQQL,1.57
5,YARYHQAFADRCQSERQRHESQQL,2.17
6,YARYHQAFADREQSERQRHESQQL,2.01
7,YARYHQAFADRNQSERQRHESQQL,1.93
8,YARYHQAFADRLQSERQRHESQQL,1.98
9,YARYHQAFADRYQSERQRHESQQL,1.86
10,YARYHQAFADRQQSERQRHESQQL,2.31
11,YARYHQAFADRDCSERQRHESQQL,2.13
12,YARYHQAFADRDMSERQRHESQQL,1.64
13,YARYHQAFADRDTSERQRHESQQL,1.79
14,YARYHQAFADRDDSERQRHESQQL,2.35
15,YARYHQAFADRDGSERQRHESQQL,2.08
16,YARYHQAFADRDVSERQRHESQQL,1.99
17,YARYHQAFADRDKSERQRHESQQL,1.91
18,YARYHQAFADRDESERQRHESQQL,1.74
19,YARYHQAFADRDHSERQRHESQQL,2.19
20,YARYHQAFADRDASERQRHESQQL,1.96
21,YARYHQAFADRDISERQRHESQQL,2.35
22,YARYHQAFADRDWSERQRHESQQL,1.72
